Assay results from the supplement of paper PMC7877785.
± gives the uncertainty stated by the source.

Experiment: self-splicing fitness, log relative to wild type (ln ratio); higher = more splicing; Tetrahymena group I intron in knt gene, E. coli kanamycin selection, DiMSum; sequences stand for … in CUCUCU…GGAGGGAAAAGUUAUCAGGCAUGCACCUGGUAGCUAGUCUUUAAACCAAUAGAUUGCAUCGGUUUAAAAGGCAAGACCGUCAAAUUGCGGGAAAGGGGUCAACAGCCGUUCAGUACCAAGUCUCAGGGGAAACUUUGAGAUGGCCUUGCAAAGGGUAUGGUAAUAAGCUGACGGACAUGGUCCUAACCACGCAGCCAAGUCCUAAGUCAACAGAUCUUCUGUUGAUAUGGAUGCAGUUCACAGACUAAAUGUCGGUCGGGGAAGAUGUAUUCUUCUCAUAAGAUAUAGUCGGACCUCUCCUUAAUGGGAGCUAGCGGAUGAAGUGAUGCAACACUGGAGCCGCUGGGAACUAAUUUGUAUGCGAAAGUAUAUUGAUUAGUUUUGGAGUACUCGUGGUCG
Method in brief: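 Colonies from six replicate transformations of E. coli BL21(DE3) were pooled and amplicon-sequenced on an Illumina HiSeq 2500. The library placed an intron with all eight P1ex-region nucleotides randomised inside the knt kanamycin-resistance gene on pET-22b(+), and cells grew overnight at 37°C or 30°C on LB agar with or without 25 μg/mL kanamycin (plus 100 μg/mL carbenicillin, 50 μM IPTG, 0.2% rhamnose). Fitness is the DiMSum error-weighted combination of wild-type-normalised replicate fold changes, kanamycin versus none.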

Sequence	self-splicing fitness (ln) (30 °C)	self-splicing fitness (ln) (37 °C)
UCCGAGCAAUAUUACGGGAA	-3.05 ± 0.3	-1.65 ± 0.19
UCCGAGCAAUAUUACGGGGG	-4.27 ± 0.33	-2.47 ± 0.22
UCCGAGCAAUAUUACGGGUA	-1.06 ± 0.13	-0.229 ± 0.096
UCCGAGCAAUAUUACGGGUC		-2.45 ± 0.26
UCCGAGCAAUAUUACGGUGG	-2.76 ± 0.14	-2.31 ± 0.2
UCCGAGCAAUAUUACGUAGU	-2.97 ± 0.16	-2.71 ± 0.18
UCCGAGCAAUAUUACGUCCG	-2.24 ± 0.24	
UCCUAGCAAUAUUACGACAC	-0.225 ± 0.29	
UCCUAGCAAUAUUACGACCU	-3.41 ± 0.48	-1.76 ± 0.31
UCCUAGCAAUAUUACGAUAG	-2.89 ± 0.33	-2.14 ± 0.35
UCCUAGCAAUAUUACGAUGC	-2.85 ± 0.21	-2.7 ± 0.29
UCCUAGCAAUAUUACGAUUG	-2.56 ± 0.24	-2.49 ± 0.45
UCCUAGCAAUAUUACGCAGU	-3.03 ± 0.15	-2.54 ± 0.2
UCCUAGCAAUAUUACGCGAC	-3.46 ± 0.32	-1.49 ± 0.31
UCCUAGCAAUAUUACGCUCC	-3.73 ± 0.33	-0.747 ± 0.24
UCCUAGCAAUAUUACGCUGA	-1.02 ± 0.11	-0.876 ± 0.12
UCCUAGCAAUAUUACGGCAA	-2.22 ± 0.2	-1.95 ± 0.19
UCCUAGCAAUAUUACGGCCU	-2.37 ± 0.34	-2.29 ± 0.37
UCCUAGCAAUAUUACGGCUC		-1.62 ± 0.44
UCCUAGCAAUAUUACGGGGA	-2.59 ± 0.24	-1.59 ± 0.21

Sequence	self-splicing fitness (ln) (30 °C)	self-splicing fitness (ln) (37 °C)
UCCUAGCAAUAUUACGGGGC	-3.1 ± 0.23	-2.77 ± 0.32
UCCUAGCAAUAUUACGGGGG	-3.69 ± 0.18	-2.59 ± 0.27
UCCUAGCAAUAUUACGGUAC	-3.79 ± 0.26	-3.32 ± 0.47
UCCUAGCAAUAUUACGGUCG	-1.69 ± 0.14	-1.59 ± 0.17
UCCUAGCAAUAUUACGUAGA	-2.36 ± 0.05	-0.729 ± 0.069
UCCUAGCAAUAUUACGUAGG	-3.58 ± 0.19	-2.21 ± 0.26
UCCUAGCAAUAUUACGUCAC	-1.97 ± 0.2	-2.6 ± 0.27
UCCUAGCAAUAUUACGUCAG	-3.38 ± 0.29	-2.41 ± 0.37
UCCUAGCAAUAUUACGUCCA	-3.15 ± 0.48	-1.56 ± 0.34
UCCUAGCAAUAUUACGUGAU	-3.3 ± 0.28	-1.9 ± 0.24
UCCUAGCAAUAUUACGUGGG	-3.24 ± 0.15	-2.5 ± 0.2
UCCUAGCAAUAUUACGUGUA	-2.28 ± 0.18	-1.09 ± 0.12
UCCUAGCAAUAUUACGUUAU	-2.99 ± 0.19	-2.59 ± 0.24
UCCUAGCAAUAUUACGUUCG	-1.03 ± 0.16	-2.28 ± 0.28
UCCUAGCAAUAUUACGUUUG	-3.11 ± 0.17	-3.36 ± 0.26
UCGAAGCAAUAUUACGAAAG	-3.24 ± 0.23	-2.47 ± 0.44
UCGAAGCAAUAUUACGAACA	-0.799 ± 0.12	-0.112 ± 0.14
UCGAAGCAAUAUUACGAACG	-1.82 ± 0.13	-0.935 ± 0.14
UCGAAGCAAUAUUACGAAGU	-4.55 ± 0.32	-1.43 ± 0.19
